Source: publication PMC4707474, “Identification of a small molecule that simultaneously suppresses virulence and antibiotic resistance of Pseudomonas aeruginosa” (Scientific Reports, 2016)

Tests used:
[1] = target: T1, P. aeruginosa DHODase (PyrD, dihydroorotate dehydrogenase) (Pseudomonas aeruginosa, UniProt Q9HZF8); experiment: DCIP-based colorimetric enzyme assay, […] min preincubation, dose-response; assay type: biochemical
T1 construct: pyrD open reading frame from PAO1 genomic DNA, in pET28a, recombinant Ni-NTA purified

[2] = substrate: COC1=C(OC)C(=O)C(C)=CC1=O; experiment: steady-state enzyme kinetics (Km) as electron acceptor, DCIP colorimetric assay; assay type: biochemical, Pseudomonas aeruginosa; conditions: FMN
[3] = substrate: O=C1C[C@@H](C(=O)O)NC(=O)N1; experiment: steady-state enzyme kinetics (Km), DCIP colorimetric assay; assay type: biochemical, Pseudomonas aeruginosa; conditions: FMN

Row | Molecule | IC50 [1] [µM] | Km [2] [µM] | Km [3] [µM]
1 | C[C@@H](NC(=O)CSc1nnnn1-c1ccc(O)cc1)c1ccc(-c2ccccc2)cc1 [compound 14] | 41 | – | –
2 | P. aeruginosa DHODase (PyrD, dihydroorotate dehydrogenase) (Pseudomonas aeruginosa PAO1) (protein, pyrD open reading frame from PAO1 genomic DNA, in pET28a, recombinant Ni-NTA purified) MYTLARQLLFKLSPETSHELSIDLIGAGGRLGLNRLLTPKPASLPVSVLGLEFPNPVGLAAGLDKNGDAIDGFGQLGFGFIEIGTVTPRPQPGNPRPRLFRLPQANAIINRMGFNNHGVDHLLARVRAAKYRGVLGINIGKNFDTPVERAVDDYLICLDKVYADASYVTVNVSSPNTPGLRSLQFGDSLKQLLEALRQRQEALALRHGRRVPLAIKIAPDMTDEETALVAAALVEAGMDAVIATNTTLGREGVEGLPHGDEAGGLSGAPVREKSTHTVKVLAGELGGRLPIIAAGGITEGAHAAEKIAAGASLVQIYSGFIYKGPALIREAVDAIAALPRRN | – | 25.6 | 60.8
